Laboratory results reported in patent publication US6379664.

B1: recombinant human lens thioltransferase (protein)
chain: AQEFVNCKIQPGKVVVFIKPTCPFCVKTQELLSQLPFKEGLLEFVDITATSDTNEIQDYLQQLTGARTVPRVFIGKECIGGCTDLESMHKRGELLTRLQQIGALK
B2: recombinant human lens thioltransferase, P12309 2-106 (enzyme)
chain: B1 chain

How the values were obtained:
[1] = molecular target: gamma crystallin-GSH mixed disulfide
[2] = molecular target: BSA-GSH mixed disulfide, P02769
[3] = molecular target: G3PD from H2O2 (0.5 mM) pretreated rabbit lens epithelial cells
[4] = molecular target: alpha crystallin-GSH mixed disulfide
[5] = molecular target: alpha crystalline-cystine mixed disulfide
[6] = molecular target: protein-cysteine mixed disulfides (PSSC); assay: cell-based or functional assay

BSA-GSH mixed disulfide, P02769, sequence (P02769 25-607): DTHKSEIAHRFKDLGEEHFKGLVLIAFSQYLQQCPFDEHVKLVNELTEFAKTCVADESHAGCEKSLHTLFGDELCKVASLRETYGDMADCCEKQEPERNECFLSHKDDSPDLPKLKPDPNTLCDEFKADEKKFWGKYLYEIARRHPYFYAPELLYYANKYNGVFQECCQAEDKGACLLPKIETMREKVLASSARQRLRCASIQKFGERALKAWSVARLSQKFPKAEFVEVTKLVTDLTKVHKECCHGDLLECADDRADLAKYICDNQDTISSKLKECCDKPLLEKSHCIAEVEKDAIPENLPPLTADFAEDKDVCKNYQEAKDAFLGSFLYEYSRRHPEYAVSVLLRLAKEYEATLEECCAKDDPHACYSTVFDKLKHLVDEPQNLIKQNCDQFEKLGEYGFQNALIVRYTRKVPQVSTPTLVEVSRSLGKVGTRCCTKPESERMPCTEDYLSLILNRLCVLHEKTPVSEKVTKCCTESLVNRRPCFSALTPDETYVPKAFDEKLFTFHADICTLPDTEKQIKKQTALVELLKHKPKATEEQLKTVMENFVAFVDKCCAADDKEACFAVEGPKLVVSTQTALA

dethiolation of PSSC relative to PSSG [6] [%] | Binder | dethiolation of 3H-PSSG (nmol dethiolated per µg thioltransferase protein; TCA-soluble radioactivity) [1] [nmol/µg thioltransferase] | substrate preference in dethiolation [1] | dethiolation of 3H-PSSG (nmol dethiolated per µg thioltransferase protein; TCA-soluble radioactivity) [2] [nmol/µg thioltransferase] | regeneration of G3PD activity (percent of activity regenerated by 30 mM DTT) [3] | dethiolation of 3H-PSSG (nmol dethiolated per µg thioltransferase protein; TCA-soluble radioactivity) [4] [nmol/µg thioltransferase] | dethiolation of 14C-PSSC [5]
– | B1 | 1.15 | Gamma crystallin-thiol mixed disulfide appears to be the favorable substrate for lens thioltransferase | 0.3 | regeneration of G3PD from H2O2 (0.5 mM) pretreated rabbit cells by recombinant human lens thioltransferase | 0.6 | alpha crystalline-cystine mixed disulfide could not be dethiolated by lens thioltransferase
50 to 60 | B2 | – | – | – | – | – | –
